Experimental data: article PMC4677475 (Journal of biomolecular screening, 2011)
Where two headings read alike, the source gives them in different places.

Columns and labels:
[1] = molecular target: T1, His-tagged human GTP cyclohydrolase 1 (human, UniProt P30793 1-250); experiment: FRET or BRET
T1 sequence (looked up): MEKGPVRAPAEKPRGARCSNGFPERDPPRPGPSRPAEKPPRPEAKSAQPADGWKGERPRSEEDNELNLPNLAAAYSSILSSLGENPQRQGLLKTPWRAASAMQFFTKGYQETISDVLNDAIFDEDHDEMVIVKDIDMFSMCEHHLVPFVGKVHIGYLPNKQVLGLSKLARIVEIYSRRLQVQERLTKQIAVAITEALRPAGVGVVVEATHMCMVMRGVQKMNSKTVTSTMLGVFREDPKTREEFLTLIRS

[2] = molecular target: T1, His-tagged human GTP cyclohydrolase 1; experiment: FRET or BRET; remark: listed apart in the source

B1: glutathione S-transferase (GST)-tagged human GTP cyclohydrolase feedback regulatory protein (natural protein)
chain: not shown
In the case of B1, the Kd [1] is reported as 15.9 nM and the Kd [2] is reported as 52.1 nM.
